Numbered stars: 1 amine (or outer) side, 2 acyl side, 3 side chain; on linkers, the order of the positions; unused ones are H or OH. Side chains are listed from the residue outwards. Ends that are not written are not given here. * marks the point of attachment. C16 diacid = O=C(O)CCCCCCCCCCCCCCC(=O)*; γGlu = O=C(O)[C@H](CCC(=O)[*:2])N[*:1]; Palmitoyl = CCCCCCCCCCCCCCCC(=O)*; AEEA = NCCOCCOCC(=O)O; GABA = NCCCC(=O)O; βAla = NCCC(=O)O
Columns and labels:
human serum albumin = target: T1, human serum albumin (human, UniProt P02768 25-609); experiment: 125I-human GIP competition binding on hGIPR COS-7 cells with and without 2% HSA; fold change of IC50 taken as HSA binding
T1 construct: also called HSA; human albumin
T1 sequence (P02768 25-609 limits assumed): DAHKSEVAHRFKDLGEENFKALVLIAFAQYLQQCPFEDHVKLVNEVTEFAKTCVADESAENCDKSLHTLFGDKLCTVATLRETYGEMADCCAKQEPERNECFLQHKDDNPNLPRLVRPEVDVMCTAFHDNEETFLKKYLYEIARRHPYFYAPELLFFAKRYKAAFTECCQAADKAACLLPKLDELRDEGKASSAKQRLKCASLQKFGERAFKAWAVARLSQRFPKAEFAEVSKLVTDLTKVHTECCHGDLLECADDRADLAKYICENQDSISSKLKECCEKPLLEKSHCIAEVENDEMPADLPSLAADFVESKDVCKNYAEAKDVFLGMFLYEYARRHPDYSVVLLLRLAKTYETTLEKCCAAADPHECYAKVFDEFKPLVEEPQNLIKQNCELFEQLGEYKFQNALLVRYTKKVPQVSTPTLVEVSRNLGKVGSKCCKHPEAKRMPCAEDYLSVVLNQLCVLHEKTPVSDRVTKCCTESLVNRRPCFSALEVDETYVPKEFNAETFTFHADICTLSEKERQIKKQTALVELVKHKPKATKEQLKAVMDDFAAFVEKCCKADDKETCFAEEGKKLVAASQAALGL
Description: (§1) After incubation, the cells were washed twice in ice-cold binding buffer (+/−2% HSA) and lysed using 200 mM NaOH with 1% SDS for 30 min. Nonspecific binding was determined as the binding of radioactive ligand to untransfected cells.

human GIP receptor [1] = target: T2, human GIP receptor (human, UniProt P48546 22-466); experiment: cell-based or functional assay
T2 sequence (looked up): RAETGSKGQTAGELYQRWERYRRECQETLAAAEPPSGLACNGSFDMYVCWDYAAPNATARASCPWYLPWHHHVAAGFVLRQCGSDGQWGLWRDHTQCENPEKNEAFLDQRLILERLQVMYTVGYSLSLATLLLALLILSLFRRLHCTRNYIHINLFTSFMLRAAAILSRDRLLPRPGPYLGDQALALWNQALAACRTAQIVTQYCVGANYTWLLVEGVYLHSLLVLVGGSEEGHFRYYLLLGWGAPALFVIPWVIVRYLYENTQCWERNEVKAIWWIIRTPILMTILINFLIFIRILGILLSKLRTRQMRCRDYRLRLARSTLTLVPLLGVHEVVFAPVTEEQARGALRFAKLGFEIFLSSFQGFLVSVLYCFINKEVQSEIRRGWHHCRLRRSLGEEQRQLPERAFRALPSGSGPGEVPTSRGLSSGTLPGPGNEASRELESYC

human GIP receptor [2] = target: T2, human GIP receptor; experiment: 125I-hGIP(1-42) competition binding, COS-7 cells expressing human GIPR
Description: as §1

human GIP receptor [3] = target: T2, human GIP receptor; experiment: cell-based or functional assay; remark: listed apart in the source
human GIP receptor [4] = target: T2, human GIP receptor; experiment: 125I-hGIP(1-42) competition binding, COS-7 cells expressing human GIPR, 0.1% casein (no HSA)
Description: as §1

human GIP receptor [5] = target: T2, human GIP receptor; experiment: 125I-hGIP(1-42) competition binding, COS-7 cells expressing human GIPR, 2% HSA
Description: as §1

B1: AT169 [hGIP(5-30)NH2[I7K]-C16diacid/7] (peptide)
peptide: TFK(C16 diacid)SDYSIAMDKIHQQDFVNWLLAQK-NH2
modifications: N-terminus assumed
SMILES: CC[C@H](C)[C@H](NC(=O)[C@H](CO)NC(=O)[C@H](Cc1ccc(O)cc1)NC(=O)[C@H](CC(=O)O)NC(=O)[C@H](CO)NC(=O)[C@H](CCCCNC(=O)CCCCCCCCCCCCCCC(=O)O)NC(=O)[C@H](Cc1ccccc1)NC(=O)[C@@H](N)[C@@H](C)O)C(=O)N[C@@H](C)C(=O)N[C@@H](CCSC)C(=O)N[C@@H](CC(=O)O)C(=O)N[C@@H](CCCCN)C(=O)N[C@H](C(=O)N[C@@H](Cc1c[nH]cn1)C(=O)N[C@@H](CCC(N)=O)C(=O)N[C@@H](CCC(N)=O)C(=O)N[C@@H](CC(=O)O)C(=O)N[C@@H](Cc1ccccc1)C(=O)N[C@H](C(=O)N[C@@H](CC(N)=O)C(=O)N[C@@H](Cc1c[nH]c2ccccc12)C(=O)N[C@@H](CC(C)C)C(=O)N[C@@H](CC(C)C)C(=O)N[C@@H](C)C(=O)N[C@@H](CCC(N)=O)C(=O)N[C@@H](CCCCN)C(N)=O)C(C)C)[C@@H](C)CC
B1: binds (human serum albumin).

B2: AT175 [hGIP(5-30)NH2[A13K]-C16diacid/13] (peptide)
peptide: TFISDYSIK(C16 diacid)MDKIHQQDFVNWLLAQK-NH2
modifications: N-terminus assumed
SMILES: CC[C@H](C)[C@H](NC(=O)[C@H](CCCCN)NC(=O)[C@H](CC(=O)O)NC(=O)[C@H](CCSC)NC(=O)[C@H](CCCCNC(=O)CCCCCCCCCCCCCCC(=O)O)NC(=O)[C@@H](NC(=O)[C@H](CO)NC(=O)[C@H](Cc1ccc(O)cc1)NC(=O)[C@H](CC(=O)O)NC(=O)[C@H](CO)NC(=O)[C@@H](NC(=O)[C@H](Cc1ccccc1)NC(=O)[C@@H](N)[C@@H](C)O)[C@@H](C)CC)[C@@H](C)CC)C(=O)N[C@@H](Cc1c[nH]cn1)C(=O)N[C@@H](CCC(N)=O)C(=O)N[C@@H](CCC(N)=O)C(=O)N[C@@H](CC(=O)O)C(=O)N[C@@H](Cc1ccccc1)C(=O)N[C@H](C(=O)N[C@@H](CC(N)=O)C(=O)N[C@@H](Cc1c[nH]c2ccccc12)C(=O)N[C@@H](CC(C)C)C(=O)N[C@@H](CC(C)C)C(=O)N[C@@H](C)C(=O)N[C@@H](CCC(N)=O)C(=O)N[C@@H](CCCCN)C(N)=O)C(C)C
B2: binds (human serum albumin).

B3: AT171 [hGIP(5-30)NH2[D9K]-C16diacid/9] (peptide)
peptide: TFISK(C16 diacid)YSIAMDKIHQQDFVNWLLAQK-NH2
modifications: N-terminus assumed
SMILES: CC[C@H](C)[C@H](NC(=O)[C@H](CO)NC(=O)[C@H](Cc1ccc(O)cc1)NC(=O)[C@H](CCCCNC(=O)CCCCCCCCCCCCCCC(=O)O)NC(=O)[C@H](CO)NC(=O)[C@@H](NC(=O)[C@H](Cc1ccccc1)NC(=O)[C@@H](N)[C@@H](C)O)[C@@H](C)CC)C(=O)N[C@@H](C)C(=O)N[C@@H](CCSC)C(=O)N[C@@H](CC(=O)O)C(=O)N[C@@H](CCCCN)C(=O)N[C@H](C(=O)N[C@@H](Cc1c[nH]cn1)C(=O)N[C@@H](CCC(N)=O)C(=O)N[C@@H](CCC(N)=O)C(=O)N[C@@H](CC(=O)O)C(=O)N[C@@H](Cc1ccccc1)C(=O)N[C@H](C(=O)N[C@@H](CC(N)=O)C(=O)N[C@@H](Cc1c[nH]c2ccccc12)C(=O)N[C@@H](CC(C)C)C(=O)N[C@@H](CC(C)C)C(=O)N[C@@H](C)C(=O)N[C@@H](CCC(N)=O)C(=O)N[C@@H](CCCCN)C(N)=O)C(C)C)[C@@H](C)CC
B3: binds (human serum albumin).

B4: AT173 [hGIP(5-30)NH2[S11K]-C16diacid/11] (peptide)
peptide: TFISDYK(C16 diacid)IAMDKIHQQDFVNWLLAQK-NH2
modifications: N-terminus assumed
SMILES: CC[C@H](C)[C@H](NC(=O)[C@H](CCCCNC(=O)CCCCCCCCCCCCCCC(=O)O)NC(=O)[C@H](Cc1ccc(O)cc1)NC(=O)[C@H](CC(=O)O)NC(=O)[C@H](CO)NC(=O)[C@@H](NC(=O)[C@H](Cc1ccccc1)NC(=O)[C@@H](N)[C@@H](C)O)[C@@H](C)CC)C(=O)N[C@@H](C)C(=O)N[C@@H](CCSC)C(=O)N[C@@H](CC(=O)O)C(=O)N[C@@H](CCCCN)C(=O)N[C@H](C(=O)N[C@@H](Cc1c[nH]cn1)C(=O)N[C@@H](CCC(N)=O)C(=O)N[C@@H](CCC(N)=O)C(=O)N[C@@H](CC(=O)O)C(=O)N[C@@H](Cc1ccccc1)C(=O)N[C@H](C(=O)N[C@@H](CC(N)=O)C(=O)N[C@@H](Cc1c[nH]c2ccccc12)C(=O)N[C@@H](CC(C)C)C(=O)N[C@@H](CC(C)C)C(=O)N[C@@H](C)C(=O)N[C@@H](CCC(N)=O)C(=O)N[C@@H](CCCCN)C(N)=O)C(C)C)[C@@H](C)CC
B4: binds (human serum albumin).

B5: AT167 [hGIP(3-30)NH2[H18K]-C16/18+y-glutamic acid+8-amino-3,6-dioxaoctanoic acid] (peptide)
peptide: EGTFISDYSIAMDKIK([γGlu-AEEA-Palmitoyl])QQDFVNWLLAQK-NH2
modifications: also: order of γGlu and AEEAc linker pieces on Lys not given here
For B5, the “cAMP accumulation Fold change (from GIP(3-30)NH2)” value (from here on “cAMP accumulation Fold change”) (human GIP receptor [1]) was 14.8 fold, the “cAMP accumulation IC50” value (human GIP receptor [1]) was 4.4 nM and the “cAMP accumulation logIC50” value (human GIP receptor [1]) was -8.36 log(M).

B6: AT117 [hGIP(3-30)NH2[H18K]-C16/18] (peptide)
peptide: EGTFISDYSIAMDKIK(Palmitoyl)QQDFVNWLLAQK-NH2
modifications: N-terminus assumed
SMILES: CCCCCCCCCCCCCCCC(=O)NCCCC[C@H](NC(=O)[C@@H](NC(=O)[C@H](CCCCN)NC(=O)[C@H](CC(=O)O)NC(=O)[C@H](CCSC)NC(=O)[C@H](C)NC(=O)[C@@H](NC(=O)[C@H](CO)NC(=O)[C@H](Cc1ccc(O)cc1)NC(=O)[C@H](CC(=O)O)NC(=O)[C@H](CO)NC(=O)[C@@H](NC(=O)[C@H](Cc1ccccc1)NC(=O)[C@@H](NC(=O)CNC(=O)[C@@H](N)CCC(=O)O)[C@@H](C)O)[C@@H](C)CC)[C@@H](C)CC)[C@@H](C)CC)C(=O)N[C@@H](CCC(N)=O)C(=O)N[C@@H](CCC(N)=O)C(=O)N[C@@H](CC(=O)O)C(=O)N[C@@H](Cc1ccccc1)C(=O)N[C@H](C(=O)N[C@@H](CC(N)=O)C(=O)N[C@@H](Cc1c[nH]c2ccccc12)C(=O)N[C@@H](CC(C)C)C(=O)N[C@@H](CC(C)C)C(=O)N[C@@H](C)C(=O)N[C@@H](CCC(N)=O)C(=O)N[C@@H](CCCCN)C(N)=O)C(C)C
B6 was tested, and the IC50 (human GIP receptor [2]) was 292 nM, the “cAMP - antagonisme IC50” value (human GIP receptor [3]) was 19.4 nM and the IC50 (human GIP receptor [4]) was 110 nM. It also gave an IC50 (human GIP receptor [5]) of 1730 nM.

B7: AT165 [hGIP(3-30)NH2[H18K]-C16/18+y-aminobuturic acid] (peptide)
peptide: EGTFISDYSIAMDKIK([GABA-Palmitoyl])QQDFVNWLLAQK-NH2
modifications: N-terminus assumed
SMILES: CCCCCCCCCCCCCCCC(=O)NCCCC(=O)NCCCC[C@H](NC(=O)[C@@H](NC(=O)[C@H](CCCCN)NC(=O)[C@H](CC(=O)O)NC(=O)[C@H](CCSC)NC(=O)[C@H](C)NC(=O)[C@@H](NC(=O)[C@H](CO)NC(=O)[C@H](Cc1ccc(O)cc1)NC(=O)[C@H](CC(=O)O)NC(=O)[C@H](CO)NC(=O)[C@@H](NC(=O)[C@H](Cc1ccccc1)NC(=O)[C@@H](NC(=O)CNC(=O)[C@@H](N)CCC(=O)O)[C@@H](C)O)[C@@H](C)CC)[C@@H](C)CC)[C@@H](C)CC)C(=O)N[C@@H](CCC(N)=O)C(=O)N[C@@H](CCC(N)=O)C(=O)N[C@@H](CC(=O)O)C(=O)N[C@@H](Cc1ccccc1)C(=O)N[C@H](C(=O)N[C@@H](CC(N)=O)C(=O)N[C@@H](Cc1c[nH]c2ccccc12)C(=O)N[C@@H](CC(C)C)C(=O)N[C@@H](CC(C)C)C(=O)N[C@@H](C)C(=O)N[C@@H](CCC(N)=O)C(=O)N[C@@H](CCCCN)C(N)=O)C(C)C
For B7, the “cAMP accumulation Fold change” value (human GIP receptor [1]) was 2.9 fold, the “cAMP accumulation IC50” value (human GIP receptor [1]) was 22.4 nM and the “cAMP accumulation logIC50” value (human GIP receptor [1]) was -7.65 log(M).

B8: AT166 [hGIP(3-30)NH2[H18K]-C16/18+β-alanine] (peptide)
peptide: EGTFISDYSIAMDKIK([βAla-Palmitoyl])QQDFVNWLLAQK-NH2
modifications: N-terminus assumed
SMILES: CCCCCCCCCCCCCCCC(=O)NCCC(=O)NCCCC[C@H](NC(=O)[C@@H](NC(=O)[C@H](CCCCN)NC(=O)[C@H](CC(=O)O)NC(=O)[C@H](CCSC)NC(=O)[C@H](C)NC(=O)[C@@H](NC(=O)[C@H](CO)NC(=O)[C@H](Cc1ccc(O)cc1)NC(=O)[C@H](CC(=O)O)NC(=O)[C@H](CO)NC(=O)[C@@H](NC(=O)[C@H](Cc1ccccc1)NC(=O)[C@@H](NC(=O)CNC(=O)[C@@H](N)CCC(=O)O)[C@@H](C)O)[C@@H](C)CC)[C@@H](C)CC)[C@@H](C)CC)C(=O)N[C@@H](CCC(N)=O)C(=O)N[C@@H](CCC(N)=O)C(=O)N[C@@H](CC(=O)O)C(=O)N[C@@H](Cc1ccccc1)C(=O)N[C@H](C(=O)N[C@@H](CC(N)=O)C(=O)N[C@@H](Cc1c[nH]c2ccccc12)C(=O)N[C@@H](CC(C)C)C(=O)N[C@@H](CC(C)C)C(=O)N[C@@H](C)C(=O)N[C@@H](CCC(N)=O)C(=O)N[C@@H](CCCCN)C(N)=O)C(C)C
For B8, the “cAMP accumulation Fold change” value (human GIP receptor [1]) was 2.9 fold, the “cAMP accumulation IC50” value (human GIP receptor [1]) was 22.9 nM and the “cAMP accumulation logIC50” value (human GIP receptor [1]) was -7.64 log(M).

— patent US20200087373A1 (UNIVERSITY OF COPENHAGEN, published 2020)
